Experimental data as given in patent US20250270328A1 (BRIGHAM AND WOMEN S HOSPITAL, published 2025).

T1: human KLRB1 expressed on CHO-K1 cells (CHO-hum-KLRB1) (human, UniProt Q12918 1-225)
T1 sequence: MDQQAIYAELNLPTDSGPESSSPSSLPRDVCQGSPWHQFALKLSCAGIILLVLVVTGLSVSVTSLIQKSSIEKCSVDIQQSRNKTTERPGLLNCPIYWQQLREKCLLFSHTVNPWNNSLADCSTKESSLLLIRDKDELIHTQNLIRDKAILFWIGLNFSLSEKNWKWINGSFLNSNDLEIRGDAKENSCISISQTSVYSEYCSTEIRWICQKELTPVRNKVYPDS

T2: human KLRB1 protein extracellular domain (ECD) (human, UniProt Q12918 67-225)
T2 construct: range 67-225; The ELISA and SPR text says only 'human KLRB1 ECD'; also called human KLRB1 ECD; CD161
T2 sequence (looked up): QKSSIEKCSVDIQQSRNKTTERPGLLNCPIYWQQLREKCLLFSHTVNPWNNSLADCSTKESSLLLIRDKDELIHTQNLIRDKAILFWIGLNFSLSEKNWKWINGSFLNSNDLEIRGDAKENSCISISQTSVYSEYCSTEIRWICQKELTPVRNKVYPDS

B1: 10A3D6hum2.2-afuc (afucosylated 10A3D6hum2.2) (antibody, human IgG1, kappa, V domains shown)
VH: QVQLVQSGAEVKKPGASVKVSCKASGYSFTGYTMNWVRQAPGQNLEWIGLINPNTGGTYYNQKFKDRVTLTVDTSISTAYMELSRLRSDDTAVYYCARLGDNYRGYFDSWGQGTTVTVSS
VL: DIQLTQSPSFLSASVGDRVTITCKASQDVGTAVVWYQQKPGKAPKLLIDWASIRHTGVPSRFSGSGSGTEFTLTISSLQPEDFADYFCQQYSTYLYTFGGGTKLEIKR
modifications: Fc N-glycan afucosylated (produced in FUT8 knockout cells). The amino-acid letters are unchanged from 10A3D6hum2.2.
B2: 10A3D6hum2.2 (antibody, human IgG1, kappa, V domains shown)
VH: QVQLVQSGAEVKKPGASVKVSCKASGYSFTGYTMNWVRQAPGQNLEWIGLINPNTGGTYYNQKFKDRVTLTVDTSISTAYMELSRLRSDDTAVYYCARLGDNYRGYFDSWGQGTTVTVSS
VL: DIQLTQSPSFLSASVGDRVTITCKASQDVGTAVVWYQQKPGKAPKLLIDWASIRHTGVPSRFSGSGSGTEFTLTISSLQPEDFADYFCQQYSTYLYTFGGGTKLEIKR
notes: copies: 2 + 2
B3: 10A3D6-hIgG1k (mouse/human chimeric antibody with 10A3D6 variable regions and human IgG1-kappa constant regions) (antibody)
heavy: not shown
light: DIVMTQSHKFMSTSVGDRVNITCKASQDVGTAVVWYQQTPGQSPKVLIDWASIRHTGVPDRFTGSGSGTDFTLTISSVQSEDLADYFCQQYSTYLYTFGGGTKLEIKRTVAAPSVFIFPPSDEQLKSGTASVVCLLNNFYPREAKVQWKVDNALQSGNSQESVTEQDSKDSTYSLSSTLTLSKADYEKHKVYACEVTHQGLSSPVTKSFNRGEC
notes: also called 10A3D6-chimeric; 10A3D6-hIgGlk; copies: 2 + 2

Assays:
[1] = target: T1, human KLRB1 expressed on CHO-K1 cells …; experiment: cell-based or functional assay
[2] = target: T2, human KLRB1 protein extracellular …; experiment: SPR, human KLRB1 ECD; format not stated
Description: The chimeric antibody 10A3D6-hIgGlk (a mouse/human chimeric antibody with 10A3D6 variable regions and human IgG1-kappa constant regions), chimeric mutated variants (10A3D6C109S, 10A3D6C109F, and 10A3D6C109V), and humanized variants of 10A3D6 created by CDR grafting (Almagro et al. 2008) were assayed for binding against human KLRB1 extracellular domain (ECD) via surface plasma resonance (SPR).

| Binder | ADCC target cell killing EC50 (flow cytometry, human NK cells) [1] [pM] | Kd [2] [pM] | koff [2] [s⁻¹] | kon [2] [M⁻¹ s⁻¹] |
| --- | --- | --- | --- | --- |
| B1 | 10 | – | – | – |
| B2 | – | 131 | 0.000139 | 1.07e+06 |
| B3 | – | 172 | 0.000191 | 1.11e+06 |
